From the nanobody polyreactivity screen of Harvey et al. (2022)

Assay: yeast display, Sf9 membrane polyspecificity reagent, FACS + sequencing; frameworks hold sequencing errors
Summary of the method: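 After 36–48 hours of galactose induction, yeast (Saccharomyces cerevisiae BJ5465) displaying a synthetic nanobody library were stained at 4 °C for 1 hour with 10% biotinylated, detergent-solubilized Sf9 membrane reagent. Streptavidin microbeads enriched the stained cells before FACS sorting into low and high (top ~1%) gates on anti-HA and streptavidin fluorescence. Each clone's polyreactivity label reflects its gate of origin.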

Sequence | polyreactivity (PSR sort gate)
QVQLVESGGGLVQAGGSLRLSCAASGRIFQGYAKGWYRQAPGKEREFVAAITASGGTTYYADSVKGRFTISRDNAKNTVYLQMNSLKPEDTAVYYCAKYRYTVAGYNYWGQGTQVTVSS | high polyreactivity
QVQLVESGGGLVQAGGSLRLSCAASGRIFQGYAMGWYRPAPGKERELLAAITVRGGTTYYADSVKGRFTISRDNAKNTVYLQMNSLKPEDTAVYYCNAAKLIHGYQSVYPGSNSRYYYWGQGTQVTVSS | low polyreactivity
QVQLVESGGGLVQAGGSLRLSCAASGRIFQNYAAMGRYRPPPGKERELVASIRATGGSTYYADSVKGRFTISRDNAKNTVYLQMNSLKPEDTAVYYCAARFAAKSLPAYDYWGQGTQVTVSS | low polyreactivity
QVQLVESGGGLVQAGGSLRLSCAASGRIFQPYAMGWYRQAPGKERELVAAITRSGGSTYYADSVKGRFTISRDNAMNTVDLQLNSLKPEDTAVSYCASKVLYPYEYWGQGTQVTVSS | low polyreactivity
QVQLVESGGGLVQAGGSLRLSCAASGRIFQRYVMGWYRQAPGKERELVASISWRGGSTYYADSVKGRFTISRDNAKNTVYLQMNSLKPEDTAVYYCAARRYTDYVRVAREMDYWGQGTQVSVSS | high polyreactivity
QVQLVESGGGLVQAGGSLRLSCAASGRIFQTYAMGWYRQAPGKERELVAAISSRGRTYYADSVKGRFTISRDNAKNTVYLQMNSLKPGDTAVYYCAARDWSHRPRGYDYWGQGTKVTVSS | high polyreactivity
QVQLVESGGGLVQAGGSLRLSCAASGRIFQTYAMGWYRQAPGNERELVARIRLSGGSTYYADSVKGRFTISRDNAKNTVYLQMNRLKPEATAVYYCAALYSRARFTDPYYYWGQGTQVTVSS | high polyreactivity
QVQLVESGGGLVQAGGSLRLSCAASGRIFQVNDKGFYIQAPGKETELVASITYSGGSTYYADSVKGRFTISRDNAKITVYLQMNSLKPEDTAVYYCNKQNYVWVLVIYYYWGQGTQVTVSS | low polyreactivity
QVQLVESGGGLVQAGGSLRLSCAASGRIFQWYAMGWYRQAPGKERELVATISDGDSTNYADSVKGRFTISRDNAKNTVYFQMNSLKPEDTAVYYCAALDIYYDSYYWYDYWGQGTQVTVSS | high polyreactivity
QVQLVESGGGLVQAGGSLRLSCAASGRIFQYNAMGWYRQAPGKERELVAAITGGGSTYYADSVKGRFTISRDNAKNTVYLQMNSLKPEDTAVYYCNKAWSCSWLLTYGYWGQGTQVTVSS | high polyreactivity
QVQLVESGGGLVQAGGSLRLSCAASGRIFQYNAMGWYRQAPGKESELVAAIRRGGGSTYYADSVKGRFTISRDNAKNTVYLQMNSLKPEDTAVYYCAARRKRVSFYPEYDYWGQGTQVTVSS | low polyreactivity
QVQLVESGGGLVQAGGSLRLSCAASGRIFQYYAMGWYRQAPGKERELVAAISRGGSTNYADSVKGRFTISRDNAKNTVYCQMNSLIPVDTAVYYCAGDEYRYYFFRPGIGYDYWGQGTQVTVSS | low polyreactivity
QVQLVESGGGLVQAGGSLRLSCAASGRIFQYYVMGWYRQAPGKERELVAAITSGGGTKYADSVKGRFTISRDNAKNTVYLQMNSLKPEDTAVYYCAAAWFDQYSRYDYWGQGTQVTVSS | low polyreactivity
QVQLVESGGGLVQAGGSLRLSCAASGRIFRANTMGWYRQAPGKERELVATSSKNGGRTYYADSVKGRFTISRDNAKNTVYLQMNSLKPEDTAVYYCNAEWRGWRFLEYGSYIYQSGYWGQGTQVTVSS | high polyreactivity
QVQLVESGGGLVQAGGSLRLSCAASGRIFRAYAMGWYRQAPGKERELVAAITSGVSTNYADSVKGRFTISRDNAKNTVYLQMNSLKAEDTAVYYCAADIYVIYEYWGQGTQVTVSS | low polyreactivity
QVQLVESGGGLVQAGGSLRLSCAASGRIFRDNAMGWYRQAPGKERELVAAITSSGGSTNYADSVKGRFTISRDNAKNTVYLQMNSLKPEDTAVYYCNTDRLGAARYDYWGQGTQVTVSS | low polyreactivity
QVQLVESGGGLVQAGGSLRLSCAASGRIFRDYAMGWYRQAPGKERELVAAIRSVGNTNYADSVKGRFTISRDNAKNTVYLQMNSLKPEDTAVYYCNRQGSYFSRQAIGDFRFDYWGQGTQVTVSS | low polyreactivity
QVQLVESGGGLVQAGGSLRLSCAASGRIFRDYAMGWYRQAPVKERELVAAITRSGDTTYYADSVKGRFTISRDNAKNTVYLQMNSLKPEDTAVYYCAARYVSRYYVYRGFEYWGQGTQVTVSS | high polyreactivity
QVQLVESGGGLVQAGGSLRLSCAASGRIFRFYAMGWSRQAPGKEREMVAVISTGGRTNYADSVKGRFTISRDNGKNTVYLQMNSLKPVDSAVYYCAAEYTNIGRYDGWNYNYWGQGTQVTVSS | high polyreactivity
QVQLVESGGGLVQAGGSLRLSCAASGRIFRGNAMGWYRQAPGKERELVAASTSSGDSTFYADSVKGRFTISRDNAKNTVYLQMNSLKPEDTAVYYCAANVRYQRTSGYYYWGQGTQVTVSS | high polyreactivity
QVQLVESGGGLVQAGGSLRLSCAASGRIFRGNAMGWYRQPPGKERELGATITRSGARTYYADSVKGRFTISRDNAKNTVYLQMNSLKPEDTAVYYCAARRVRSYAYDYWGQGTQVTVSS | high polyreactivity
QVQLVESGGGLVQAGGSLRLSCAASGRIFRGNTMGWYRQAPGKERELVAAITRGGSTSYADSVKGRFTISRDNAKNTVYLQMNSLKPEDTAVFYCATRTHGEGTRRDSWGQGTQVTVSS | low polyreactivity

Sequence | polyreactivity (PSR sort gate)
QVQLVESGGGLVQAGGSLRLSCAASGRIFRGYAMGWYIQAPGKEREFVADITRSGGSTYYADSVKGRFTISRDNAKNTVYLQMNSLKPEDTAVYYCAREWYQYSPYHRFDYWGQGTQVTVSS | high polyreactivity
QVQLVESGGGLVQAGGSLRLSCAASGRIFRGYAMGWYRQAPGKERELVAAIDTDTGITYYADSVKGRFTISRDNAKNTVYLQMNSLKPEDTAVYYCAAETYYAVSTGYDFDYWGQGTQVTVSS | high polyreactivity
QVQLVESGGGLVQAGGSLRLSCAASGRIFRGYAMGWYRQAPGKERELVAAISRSGGSTYYADSVKGRFTISRDNAKNTVYLQMNSLKPEDTAVYYCAAVPYYVWYYYPIGGYWGQGTQVTVSS | high polyreactivity
QVQLVESGGGLVQAGGSLRLSCAASGRIFRGYAMGWYRQAPGKERELVADISSGASTNYADSVKGRFTISRDNAKNTVYLQMNSLKPEDTAVYYCAAQHSVLAYFEYDYWGQGTQVTVSS | low polyreactivity
QVQLVESGGGLVQAGGSLRLSCAASGRIFRGYAMGWYRQAPGKERELVATITARGGNTYYADSVKGRFTISRDNAKNTVYLQMNSLKPEETAVYYCAATFYRRYVDLGYWGQGTQVTVSS | high polyreactivity
QVQLVESGGGLVQAGGSLRLSCAASGRIFRGYTMGWYRQAPGKEREFVAAITANGGRTYYADSVKGRFTISRDTAKNTVYLKMNRLKPEDTAVYYCNARTYTYRGSFDYWVQGTQVTVSS | high polyreactivity
QVQLVESGGGLVQAGGSLRLSCAASGRIFRHNTMGWYRQAPGKERELDAGITASGGDTYYADSVKGRFTISRDNAKNTVYLQMNSLKPEDTAVYYCAKRGQSYTYRRYDYWGQGTQVTVSS | low polyreactivity
QVQLVESGGGLVQAGGSLRLSCAASGRIFRINAMGWYRQAPGKERELVASITSRAGSTYYADSVKGRFTISRDNAKNTVYLQMNSLKPEDTAVYYCAAASRRGYYYWGQGTQVTVSS | high polyreactivity
QVQLVESGGGLVQAGGSLRLSCAASGRIFRINDMGWYIQAPGKERELVAAITWSGGSTYYADSVKGRFTISRDNAKNPVYLPMNSLKPEDTAGYYCAADQAYFWGYYYWGQGTQVTVSS | low polyreactivity
QVQLVESGGGLVQAGGSLRLSCAASGRIFRKYAMGWYRQAPGKERELVAAINWSGGSTYYADSVKGRFTISRDNAKNTVYLQMNSLKPEDTAVYYCAAYVRRVGYYYWGQGTQVTVSS | high polyreactivity
QVQLVESGGGLVQAGGSLRLSCAASGRIFRKYTMGWYRQAPGKERELVAAITGTGGSTYYADSVKGRFTISRDNAKNTVYLQMNSLKPEDTAVYYCAAVARFRYSDMYYWGQGTQVTVSS | high polyreactivity
QVQLVESGGGLVQAGGSLRLSCAASGRIFRLYAMGWYRQAPGKERELVASISKSGGSTYYADSVKGRFTISRDNAKNTVYLQMNSLKPADSAVYYCAADYRTHGGYEGTFDYWGQGTQVTVSS | low polyreactivity
QVQLVESGGGLVQAGGSLRLSCAASGRIFRNNAMGGDRQAPGKERELVASITSSGGSTYYADSVKGRFTISRDNAKNTVYLQMNSLKPEDTAVYYCAAYTRSGYGYKLYYYWGQGTQVNVSS | high polyreactivity
QVQLVESGGGLVQAGGSLRLSCAASGRIFRNYAMGWYRQAPGKERELVPAITRGGSTYYAVSVKGRFSISRDNAKNTVYLQMNSLKPEDNAVYYCNKAWPYSHPVQYHRSRSYDYWGQGTQVTVSS | high polyreactivity
QVQLVESGGGLVQAGGSLRLSCAASGRIFRPNTMGWYRQAPGKERELVAAISRSGGSTYYADSVKGRFTISRDNAKNTVYLQMNSLKPEDTAVDYCAKRYGGIVGVGANKYEYWGQGTQVTVAS | high polyreactivity
QVQLVESGGGLVQAGGSLRLSCAASGRIFRPNTMGWYRQAPGKERELVASISLSAGSTYYADSVKGRFTISRDNAKNTVFLQMNSLKPEDTAVYYCNATYLSWYRYKYNYWGQGTQVTVSS | low polyreactivity
QVQLVESGGGLVQAGGSLRLSCAASGRIFRPYAMGWYRQAPGKERELVAAITRGGSTKYADSVKGRFTISRDNAKNTVYLQMNSLKPEDTAVYYCAARGWSTGTSYRSAWWDYYYWGQGTQVTVSS | high polyreactivity
QVQLVESGGGLVQAGGSLRLSCAASGRIFRQNAMGWYRQAPGKERELVAAISRGGGSTYYADSVKGRFTISRDNAKNTVYLQMNSLKPDDTAVYYCAAFQAHQTAFDYWGQGTQVTVSS | high polyreactivity
QVQLVESGGGLVQAGGSLRLSCAASGRIFRRNTMGWYRQAPGKEREVVAAITSSGGSTYADSVKGRFTISRDNAKNTVYLQMNSLKPEDTAVYYCATYVAYHRGYRTYDHWGQGTQVTVSS | low polyreactivity
QVQLVESGGGLVQAGGSLRLSCAASGRIFRRYALGLYRQAPGKEREFVAAISYGGGSTYYADSVKGRFTISRDNAKNTVYLQMNRLKPEDTAVYFCNADVPKSLLLYYPWGYGYWGQGTQVTVSS | low polyreactivity
QVQLVESGGGLVQAGGSLRLSCAASGRIFRRYAMGWNRQAPGKEMELVAAISRSGGSTYYADSVKGRFTISRDNAKNTVYLQMNSLKPEDTAVYYCNRRYITYNYDYWGQGTQVTVSS | high polyreactivity
